From patent US20180193430, “COMPOSITIONS AND METHODS TO INHIBIT VIRAL REPLICATION” (published 2018)
Changes are numbered by the printed parent chain.

Legend:
RIG-I wild-type [1] = target: T1, RIG-I wild-type (Homo sapiens, UniProt O95786 SEQ:1-925); assay: EMSA; forms the slowly migrating complex with dsRNA lacking 5'-triphosphate; 1.5 mM MgCl2, room temperature; settings: tags: Flag; purified from transfected HEK293T; label: 32P at 5' end of bottom strand; blunt 19 bp duplex lacking 5'-triphosphate
T1 chain: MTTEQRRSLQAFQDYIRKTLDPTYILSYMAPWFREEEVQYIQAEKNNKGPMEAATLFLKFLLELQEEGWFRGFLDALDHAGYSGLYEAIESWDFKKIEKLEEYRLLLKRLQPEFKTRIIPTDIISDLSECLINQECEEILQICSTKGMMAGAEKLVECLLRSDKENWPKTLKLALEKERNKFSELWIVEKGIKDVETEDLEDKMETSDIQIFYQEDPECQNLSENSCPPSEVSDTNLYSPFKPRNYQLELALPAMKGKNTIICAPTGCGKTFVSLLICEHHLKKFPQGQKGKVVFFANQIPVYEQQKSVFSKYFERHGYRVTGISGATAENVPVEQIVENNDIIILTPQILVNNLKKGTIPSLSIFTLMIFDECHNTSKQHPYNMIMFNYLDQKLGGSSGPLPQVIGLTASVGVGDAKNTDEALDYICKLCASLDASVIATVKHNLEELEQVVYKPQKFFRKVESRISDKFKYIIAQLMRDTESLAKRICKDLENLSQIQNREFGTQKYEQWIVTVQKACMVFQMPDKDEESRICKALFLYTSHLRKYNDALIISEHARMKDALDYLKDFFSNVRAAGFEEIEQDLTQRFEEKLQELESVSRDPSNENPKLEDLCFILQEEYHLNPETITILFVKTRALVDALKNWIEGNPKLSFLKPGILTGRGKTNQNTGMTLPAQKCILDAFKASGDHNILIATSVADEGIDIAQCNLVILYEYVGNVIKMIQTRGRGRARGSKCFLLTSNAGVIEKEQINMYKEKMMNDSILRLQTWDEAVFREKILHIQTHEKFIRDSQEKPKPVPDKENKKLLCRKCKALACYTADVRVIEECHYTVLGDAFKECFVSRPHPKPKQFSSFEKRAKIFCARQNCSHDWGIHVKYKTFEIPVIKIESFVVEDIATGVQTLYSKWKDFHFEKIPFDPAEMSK

RIG-I-K270A = target: T2, RIG-I-K270A (Homo sapiens, UniProt O95786 SEQ:1-925, K270A); assay: EMSA; affinity similar to WT; 1.5 mM MgCl2, room temperature; settings: tags: Flag; purified from transfected HEK293T; label: 32P at 5' end of bottom strand; blunt 19 bp duplex
T2 sequence: T1 chain with K270A

RIG-I-N495D = target: T3, RIG-I-N495D (Homo sapiens, UniProt O95786 SEQ:1-925, N495D); assay: EMSA; affinity comparable to WT; 1.5 mM MgCl2, room temperature; settings: tags: Flag; purified from transfected HEK293T; label: 32P at 5' end of bottom strand; blunt 19 bp duplex
T3 sequence: T1 chain with N495D

RIG-I wild-type [2] = target: T1, RIG-I wild-type; assay: EMSA; two RIG-I:RNA complexes with increasing RIG-I; 20 mM Tris-HCl pH 8.0, 1.5 mM MgCl2, 1.5 mM DTT, room temperature; settings: tags: Flag; purified from transfected HEK293T; label: 32P at 5' end of bottom strand; blunt 19 bp duplex

B1: control dsRNA 19mer (dsRNA)
RNA 1: GCAUGCGACCUCUGUUUGA
RNA 2: UCAAACAGAGGUCGCAUGC
- binding result (RIG-I wild-type [1]): binds

B2: 5'-ppp-dsRNA 19mer (dsRNA)
RNA 1: GCAUGCGACCUCUGUUUGA
RNA 2: UCAAACAGAGGUCGCAUGC
modifications: 5'-triphosphate on top strand
- binding result (RIG-I-K270A): binds
- binding result (RIG-I-N495D): binds
- binding result (RIG-I wild-type [2]): binds
